From US20250114467A1 (SHANGHAI FUDAN ZHANGJIANG BIO PHARMACEUTICAL, published 2025)

T1: human DLL3 (hDLL3) on cells (human, UniProt Q9NYJ7 27-618)
T1 construct: whole, on cells; V5-tagged); also called DLL3 on SHP-77 cells (endogenous); hDLL3 on HEK293 cells
T1 sequence (looked up): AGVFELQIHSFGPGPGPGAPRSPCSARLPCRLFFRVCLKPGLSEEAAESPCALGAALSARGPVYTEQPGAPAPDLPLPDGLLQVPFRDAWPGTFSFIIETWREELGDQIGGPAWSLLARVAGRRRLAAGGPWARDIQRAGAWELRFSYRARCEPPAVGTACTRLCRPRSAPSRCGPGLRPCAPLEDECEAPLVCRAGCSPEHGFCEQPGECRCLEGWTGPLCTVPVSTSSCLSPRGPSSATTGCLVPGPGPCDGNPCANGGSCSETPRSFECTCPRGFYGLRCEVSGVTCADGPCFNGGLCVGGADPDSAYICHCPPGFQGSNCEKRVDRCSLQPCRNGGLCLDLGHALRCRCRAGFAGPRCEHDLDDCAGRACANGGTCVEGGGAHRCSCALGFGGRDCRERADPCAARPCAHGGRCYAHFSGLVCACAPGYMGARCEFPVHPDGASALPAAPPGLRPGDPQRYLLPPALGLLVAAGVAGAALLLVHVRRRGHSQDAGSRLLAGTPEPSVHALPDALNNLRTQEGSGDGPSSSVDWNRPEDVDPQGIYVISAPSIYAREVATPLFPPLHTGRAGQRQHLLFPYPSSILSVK

T2: recombinant DLL3 protein (purchased from ACRO, DL3-H5255) (human, UniProt Q9NYJ7 27-479)
T2 construct: Bought; also called human DLL3 protein; hDLL3
T2 sequence (looked up): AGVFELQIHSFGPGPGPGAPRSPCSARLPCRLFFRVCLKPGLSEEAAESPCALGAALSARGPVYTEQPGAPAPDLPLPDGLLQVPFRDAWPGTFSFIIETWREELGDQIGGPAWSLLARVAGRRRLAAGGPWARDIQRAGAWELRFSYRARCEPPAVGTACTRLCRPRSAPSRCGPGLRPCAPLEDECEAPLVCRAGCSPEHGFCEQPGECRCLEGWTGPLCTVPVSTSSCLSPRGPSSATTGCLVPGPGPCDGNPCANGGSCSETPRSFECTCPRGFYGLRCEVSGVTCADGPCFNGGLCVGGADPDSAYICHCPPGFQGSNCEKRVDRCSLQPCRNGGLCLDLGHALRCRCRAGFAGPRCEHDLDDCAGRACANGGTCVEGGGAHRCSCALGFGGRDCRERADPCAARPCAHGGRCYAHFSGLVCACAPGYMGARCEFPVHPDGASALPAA

B1: 19C7 (antibody, V domains shown)
VH: EVQLQQSGPELVRPGASVRMSCKASGYTFTYYVMHWVKQKPGLGLEWIGYINPYNDGTEYNEKFKGKATLTSDKSSSTAFMELSSLTSEDSAVYYCARWLLREYAMDYWGQGTSVTVSS
VL: DIQMTQSPASLSASVGETVTITCRASDNIHNYLAWYQQKQGKSPQLLVYNAKTLADGVPSRFSGSGSGTQYSLKINSLQPEDFGSYYCQHFWSTPWTFGGGTKLEIK
notes: Murine hybridoma monoclonal antibody; also called hybridoma antibody clone 19C7
B2: 26D9 (antibody, V domains shown)
VH: EVQLQQSGPELVKPGASVKMSCKASGYTFTTYVMHWVKQKPGQGLEWIGYINPYNDDTNYNEKFKGKATLTSDKSSSTAYMELSSLTSEDSAVYYCARWGLTGTGDYYAMDYWGQGTSVTVSS
VL: DIQMTQSPASLSASVGETVTITCRASGNVHNYLAWYQQKQGRSPQVLVYNAKTLADGVPSRFSGSGSGTQYSLKINSLLPEDFGSYYCQHFWTTPWTFGGGTTLEIK
notes: Murine hybridoma monoclonal antibody; also called hybridoma antibody clone 26D9
B3: 10B1 (antibody, V domains shown)
VH: DVKLVESGGGLVKPGGSLKLSCAASGFTFSNYTISWVRQTPEKRLEWVATFSSGGSYTYYSDSVKGRFTISRDNAKNTLYLQMSSLKSEDTAMYYCSRDRRSDGYYHLYAMDYWGQGTSVTVSS
VL: DIQMTQTTSSLSASLGDRVTISCRASQDISHYLNWYQQKPDGTVKLLIYYTSRLHSGVPSRFSGSGSGTAYSLTISNLEQEDIATYFCQQGYTLPLTFGAGTKLELK
notes: Murine hybridoma monoclonal antibody; also called hybridoma antibody clone 10B1
B4: 36H10 (antibody, V domains shown)
VH: EVQFQQSGPELVKPGASVKISCKASGYTFTDYNIHWVRQSQGKSLEWIGLIYPFNGGIVYNQKFKSKATLTVDNSSTSAYMELRSLSSEDSAVYFCARLNWEGYWGQGSTLIVSS
VL: DIKMTQSPSSIYAFLGERVTITCKASQDINSYLSWFQQKPGKSPKTLIYRANRLVGGVPSRFSGSGSGQDYSLTISSLEYEDVGDYYCLQYAEFPYTFGGGTKLEIK
notes: Murine hybridoma monoclonal antibody; also called hybridoma antibody clone 36H10
B5: 32E8 (antibody, V domains shown)
VH: QVTLKESGPGILQPSQTLSLTCSFSGFSLSTSGMGVGWIRQPSGKGLEWLALIWWDDVKRYHPALKSRLTISKDTSSSQVFLKIASVDTADTATYYCARIAEVTGQVGLHYAMDYWGQGTSVTVSS
VL: QTVLTQSPAIMSASLGERVTMTCTASSSVNSSSLHWYQQKPGSSPKLWIYTTSNLASGVPARFSGSGSGTSYSLTISSMEAEDAATYYCHQFHRSPFTFGSGTKLEIK
notes: Murine hybridoma monoclonal antibody; also called hybridoma antibody clone 32E8
B6: 4H7 (antibody, V domains shown)
VH: EVQLQQSGAELVRPGALVKLSCKASGFNFKDYYIHWVKQRPELGLEWIGWIDPENGNAIYDPKFQDKASITADTSSNTAYLHLSSLTSEGTAVYYCASEDAYYPFAYWGQGTLVTVSS
VL: DIVMSQSPSSLAVSVGEKVTMRCKSSQSLLYSSNQKNYLAWYQQKPGQSPKLLIYWASTRESGVPDRFTGSGSGTDFTLTISSVKAEDLAVYFCQQYYSYRTFGGGTKLEIK
notes: Murine hybridoma monoclonal antibody; also called hybridoma antibody clone 4H7
B7: 1A5 (antibody, V domains shown)
VH: EVQLQQSGPELVKPGASVKISCKTSGYTFTESAMHWVKQSHGKSLEWIGGINPNNGGISYSQKFKGKATLTVDKSSSTAYMELRSLTSEDSAVYYCGSSYYRDYFDYWGQGTTLTVSS
VL: NIVMTQSPESMSMSVGERVTLSCKASENVGTYVSWYQQKPDQSPKLLIYGASNRYTGVPDRFTGSGSATHFTLTISSVQAEDLADYHCGQSYSYPLTFGAGTKLELK
notes: also called hybridoma antibody clone 1A5
B8: 33F11 (antibody, V domains shown)
VH: EVQLQQSGPELVKPGASVKISCKTSGYTFTENTMHWVKQSHGESLEWIGGINPRNGVTSYNQKFKGKATLTVDKSSSTAYMELRSLTSEDSAVYYCTNTYYRDYFDYWGQGTTLTVSS
VL: NIVMTQSPKSMSMSVGERVTLSCKASENVGTYVSWYQQKPDQSPKLLIYGASNRYTGVPDRFTGSGSPTDFTLTISRMQAEDLAHYYCGQTYTYPLTFGAGTKLELK
notes: Murine hybridoma monoclonal antibody; also called hybridoma antibody clone 33F11
B9: 15G2 (antibody, V domains shown)
VH: EVQLQQSGPELEKPGASVRISCKASGYSFTDYNMHWVKQSNGKSLEWIGNIDPYYGGTNYNQKFEGKATLTVDKSSSTAYMQLKSLTSEDSAVYYCARGGNNYGDYWGQGTTLTVSS
VL: DIQMTQSPASLAASVGETVTITCRASENIYYSLAWYQQKQGKSPQLLIFNANSLEDGVPSRFSGSGSGTQYSMKINSMQPEDTATYFCKQAYDVPWTFGGGTKLEIK
notes: Murine hybridoma monoclonal antibody; also called hybridoma antibody clone 15G2
B10: 13C2 (antibody, V domains shown)
VH: EVKLVESGGGLVKPGGSLKLSCAASGFAFSSYDMSWVRQTPEKRLEWVATISSGGSYTYYPDSVKGRFTISRDNGRNTLYLQMSSLRSEDTALYYCASPLLGLRFAYWGQGTLVTVSA
VL: QAVVTQESALTTSPGETVTLTCRSSTGAVTTINYANWVQEKPDHLFTGLIGGTNNRAPGVPARFSGSLIGDKAALTITGAQTEDEAIYFCALYYSNHWVFGGGTKLTVL
notes: Murine hybridoma monoclonal antibody; also called hybridoma antibody clone 13C2
B11: 6A2 (antibody, V domains shown)
VH: EVQLQQSGPELVKPGASVKISCKASGYTFTDYNMNWVKQSQGKSLEWIGYIYPYNGGTGYNQKFKTKATLTVDNSSSTAYMEFRSLTSEDSAVYYCARSDPYYTMDYWGQGTSVTVSS
VL: IIVMTQTPKFLLVSAGDRVTISCKASQSVNNDVAWYQQKPGQSPKLLIYFTSNRFTGVPDRFTGSGYGTDFTFTISSVQAEDLAVYFCQQDHNSPYTFGGGTKLEIK
notes: Murine hybridoma monoclonal antibody; also called hybridoma antibody clone 6A2
B12: 23G2 (antibody, V domains shown)
VH: QVQLQQSGPELVRPGVSVKISCKGSGYTFTDYAIHWVKQSRAKSPEWIGIVSTDSGKTSFNQKFKGKATMTVDKSSTTAYMELVRLTSEDSAIYYCARNPYYDYDGYAMDYWGQGTSVTVSS
VL: DIQMTQSSSYLSVSLGGRVTIICKASDHINNWLAWYQQKPGNAPRLIISGATSLETGVPSRFSGSGSGKDYTLSITSLQTEDVATYYCQQYWSIPYTFGGGTKLEIK
notes: Murine hybridoma monoclonal antibody; also called hybridoma antibody clone 23G2
B13: FDA027 (antibody, human IgG1, kappa, V domains shown)
VH: QVQLVQSGAEVKKPGASVKVSCKASGYTFTNYGMNWVRQAPGQGLEWMGWINTYTGEPTYADDFKGRVTMTTDTSTSTAYMELRSLRSDDTAVYYCARIGDSSPSDYWGQGTLVTVSS
VL: EIVMTQSPATLSVSPGERATLSCKASQSVSNDVVWYQQKPGQAPRLLIYYASNRYTGIPARFSGSGSGTEFTLTISSLQSEDFAVYYCQQDYTSPWTFGQGTKLEIKR
notes: also called anti-DLL3 antibody FDA027

target: T1, human DLL3 (hDLL3) on cells; test: flow cytometry on SHP-77 cells, 1 µg/ml antibody, kept on ice (0 H of the internalization assay)
Procedure: The SHP-77 cells were used to detect the internalization activity of the hybridoma antibodies obtained in Example 3-3 by using the FACS method described in Example 3-1. The detecting method is briefly described as follows: Six aliquots of 5×10⁵ SHP-77 cells each were prepared in a 96-well V-bottom plate and centrifuged at 1500 r/min for 1 minute, after which the supernatant was discarded. 1 μg/ml of the saturated antibody to be detected was added to each well (200 μL per well) and incubated on ice for 30 minutes. Then, 150 μL of PBS was added to each well, followed by centrifugation at 1500 r/min for 1 minute, and the supernatant was discarded. This step was repeated four times. The cells were resuspended in 200 μl of PBS, and one aliquot was incubated at 37° C. for various durations: 5 hours, 3 hours, 1 hour, 0.5 hours, and 15 minutes. The remaining aliquot was kept on ice. After incubation, all samples were centrifuged at 4° C., 1500 r/min for 1 minute, and the supernatant was discarded. APC-labeled goat anti-mouse IgG (Jackson, catalog number 109-605-098, diluted 1:800 in PBS) was added to each well (50 μL per well) and incubated on ice for 30 minutes. The cells were then washed four times by resuspending in 150 μL of PBS, followed by centrifugation at 1500 r/min for 1 minute and discarding the supernatant. Finally, the cells were resuspended in 100 μL of PBS and analyzed using a CytoFLEX flow cytometer (purchased from Beckman).

For B1, which “fluorescence value at 0 H” value is on record?
The value was 29600.

With B2 as the binder, how does the “fluorescence value at 0 H” value read?
Its value is 15300.

How did the “fluorescence value at 0 H” value turn out when B3 was run?
The value was 22400.

Which “fluorescence value at 0 H” value does the source give for B4 here?
Its value is 36000.

Which “fluorescence value at 0 H” value does the source give for B5 here?
The value was 32100.

With B6 as the binder, how does the “fluorescence value at 0 H” value read?
Its value is 15400.

How did the “fluorescence value at 0 H” value turn out when B7 was run?
The value was 39300.

For B8, which “fluorescence value at 0 H” value is on record?
The value was 27600.

For B9, which “fluorescence value at 0 H” value is on record?
The value was 20300.

How did the “fluorescence value at 0 H” value turn out when B10 was run?
Its value is 40200.

B11 was tested. Which “fluorescence value at 0 H” value did it give?
The value was 20300.

With B12 as the binder, how does the “fluorescence value at 0 H” value read?
Its value is 20300.

target: T2, recombinant DLL3 protein (purchased …); test: ELISA, plate-coated human DLL3 protein 1 µg/ml
Text: Six 6-week-old SPF grade female Balb/C mice (purchased from Shanghai Jihui Laboratory Animal Care Co., Ltd.) were selected and randomly divided into two groups, A and B. They were immunized with recombinant DLL3 protein (purchased from ACRO, DL3-H5255) at two-week intervals. Freund's complete adjuvant was used for the first immunization and Freund's incomplete adjuvant was used for subsequent immunizations. On days 35 and 49, blood samples were collected from the mice via orbital bleeding, and the immune serum titers of the mice were detected using conventional methods of ELISA and Flow Cytometry (FACS). ELISA detection method: DLL3 protein was diluted with PBS to a concentration of 1 μg/ml. 100 μl/well was added to a 96-well ELISA plate and incubated overnight at 4° C. The next day, the supernatant was discarded, and each well was blocked with 200 μl of 2% milk in PBS for 2 hours. After discarding the blocking solution, the wells were washed 3 times with 200 μl of PBST (0.1% Tween20). The serum to be detected was pre-diluted 100 times as the starting concentration, followed by a 3-fold gradient dilution across 11 concentrations, with 100 μl added to each well of the ELISA plate. After incubating at room temperature for 1 hour, the supernatant was discarded and the wells were washed 5 times with 200 μl of PBST (0.1% Tween20). Then, 100 μl of HRP-labeled goat anti-mouse secondary antibody (Jackson, 1:10000) was added and incubated at room temperature for 1 hour. After discarding the supernatant, the wells were washed 7 times with 200 μl of PBST (0.1% Tween20). 100 μl of TMB chromogen solution was added to each well for 10 minutes. The reaction was terminated with 2M HCl, and absorbance value at 450 nm was read with a Microplate Reader (purchased from Biotek, Elx808).
For the hybridoma clones with good binding and internalization activities identified in Example 5, the heavy chain variable region sequences were synthesized and cloned into the pFUSEss-CHIg-hG1 vector (purchased from InvivoGen, catalog number pfusess-hchgl) comprising the amino acid sequence of the human antibody IgG1 heavy chain constant region by homologous recombination.

B13 was tested. Which EC50 did it give?
Its EC50 is 0.0108 mg/L.
